US20250326814A1, “MODIFIED OXYNTOMODULIN AND METHODS OF USE THEREOF” (OPKO BIOLOGICS LTD., priority 2024, published 2025)

Tests used:
[1] = target: glucagon receptor (GCGR); assay: cell-based or functional assay
[2] = target: glucagon-like peptide-1 receptor (GLP-1R); assay: cell-based or functional assay

| % EC50 compare to KPI (GCGR), with HSA added (KPI + HSA) [1] | EC50 (nM) GCGR, glucagon activity in vitro [1] | EC50 [nM] GCGR, CBA potency assay [1] | EC50 [nM] GCGR, CBA potency assay, with HSA added (KPI + HSA) [1] | EC50 [nM] GCGR, CBA potency assay, without HSA [1] | % EC50 compare to KPI (GLP1), with HSA added (KPI + HSA) [2] | EC50 (nM) GLP-1R, GLP-1 activity in vitro [2] | EC50 (nM), GLP-1 activity [2] | EC50 [nM] GLP1, CBA potency assay [2] | EC50 [nM] GLP1, CBA potency assay, with HSA added (KPI + HSA) [2] | EC50 [nM] GLP1, CBA potency assay, without HSA [2] | Substance |
| --- | --- | --- | --- | --- | --- | --- | --- | --- | --- | --- | --- |
| 129% | 0.0731 nM | 0.6 nM | 1.06 nM | 1.37 nM | 107% | 0.0168 nM | 0.105 nM | 0.127 nM | 0.187 nM | 0.201 nM | OPK-88003 KPI (SEQ ID NO: 3 where Xaa38=Cys and Xaa39=Cys) (peptide) |
| – | – | – | – | – | – | – | 0.9 nM | – | – | – | Tirzepatide (Mounjaro, Zepbound) (peptide) |
